Laboratory results published in US20250340603A1, “A METHOD FOR MODULATING PLANT ADAPTATION TRAITS” (CRAG (Centre de Recerca en Agrigenòmica), priority 2021, published 2025).

Tests used:
[1] = test system: WT (Col-0) and brl3-2 mutant seedlings; experiment: Bikinin sensitivity assay (hypocotyl elongation); type: in vivo, Arabidopsis thaliana; conditions: 6 d, LD
Method: Chemicals used include; 1 μM BRZ220 (Gift from T. Nakano, RIKEN, Japan) or 50 μM Bikinin (200980, Sigma-Aldrich) for 6-d in control (long days, 22° C.) or high temperature (long days, 28° C.) conditions. Hypocotyl length were measured using the Image J software (v.1.48v) (https-/imagej.nih.gov/ij/).
For hypocotyl elongation analysis, seedlings were grown in horizontally placed 0.5MS− media plates in controlled growth conditions (Aralab 600; long days 16:8h day/night cycle 60% relative humidity and 50-70 μmol m^−2 s^−1 of cool-white fluorescent light) at 22° C. or 28° C. temperature for 5-7d. Plates were photographed and hypocotyl length were measured using the ImageJ software (v.1.48v) (https:/imagej.nih.gov/ij/). For root growth analysis, seedlings were grown in vertically placed 0.5MS− media plates in controlled growth conditions (Aralab 600; long days 16:8h day/night cycle; 22° C.). MyROOT software (Betegón-Putzé et al., 2019) was used to compare root growth of plants. Lateral roots were manually counted under a stereozoom microscope in 9-d-old seedlings.
Seedlings were grown in horizontally placed 0.5MS− media supplemented with or without 50 μM Bikinin (200980, Sigma-Aldrich) for 6-d in control (long days, 22° C.) or high temperature (long days, 28° C.) conditions. Hypocotyl length were measured using the Image J software (v.1.48v) (https://imagej.nih.gov/ii/).

[2] = molecular target: T1, BRL3T1025A, phospho-dead version of the BRL3 kinase domain
T1 chain: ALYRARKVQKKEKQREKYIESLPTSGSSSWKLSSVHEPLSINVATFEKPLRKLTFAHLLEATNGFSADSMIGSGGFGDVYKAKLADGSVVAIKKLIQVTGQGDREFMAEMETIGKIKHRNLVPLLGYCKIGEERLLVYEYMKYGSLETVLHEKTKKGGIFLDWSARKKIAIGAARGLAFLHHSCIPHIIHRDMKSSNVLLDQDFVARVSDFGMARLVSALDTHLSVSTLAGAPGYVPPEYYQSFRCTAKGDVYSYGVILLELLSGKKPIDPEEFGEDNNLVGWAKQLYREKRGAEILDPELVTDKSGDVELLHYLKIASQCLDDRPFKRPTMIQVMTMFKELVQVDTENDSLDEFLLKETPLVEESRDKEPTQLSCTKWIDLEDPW

[3] = molecular target: T2, BRI1 (BRASSINOSTEROID … 1), BiFC negative control (Arabidopsis, UniProt O22476 24-1196); experiment: BiFC (split YFP) in Nicotiana benthamiana leaves, confocal microscopy
T2 construct: whole, on cells; not shown: the construct of this control is not described
T2 sequence (looked up): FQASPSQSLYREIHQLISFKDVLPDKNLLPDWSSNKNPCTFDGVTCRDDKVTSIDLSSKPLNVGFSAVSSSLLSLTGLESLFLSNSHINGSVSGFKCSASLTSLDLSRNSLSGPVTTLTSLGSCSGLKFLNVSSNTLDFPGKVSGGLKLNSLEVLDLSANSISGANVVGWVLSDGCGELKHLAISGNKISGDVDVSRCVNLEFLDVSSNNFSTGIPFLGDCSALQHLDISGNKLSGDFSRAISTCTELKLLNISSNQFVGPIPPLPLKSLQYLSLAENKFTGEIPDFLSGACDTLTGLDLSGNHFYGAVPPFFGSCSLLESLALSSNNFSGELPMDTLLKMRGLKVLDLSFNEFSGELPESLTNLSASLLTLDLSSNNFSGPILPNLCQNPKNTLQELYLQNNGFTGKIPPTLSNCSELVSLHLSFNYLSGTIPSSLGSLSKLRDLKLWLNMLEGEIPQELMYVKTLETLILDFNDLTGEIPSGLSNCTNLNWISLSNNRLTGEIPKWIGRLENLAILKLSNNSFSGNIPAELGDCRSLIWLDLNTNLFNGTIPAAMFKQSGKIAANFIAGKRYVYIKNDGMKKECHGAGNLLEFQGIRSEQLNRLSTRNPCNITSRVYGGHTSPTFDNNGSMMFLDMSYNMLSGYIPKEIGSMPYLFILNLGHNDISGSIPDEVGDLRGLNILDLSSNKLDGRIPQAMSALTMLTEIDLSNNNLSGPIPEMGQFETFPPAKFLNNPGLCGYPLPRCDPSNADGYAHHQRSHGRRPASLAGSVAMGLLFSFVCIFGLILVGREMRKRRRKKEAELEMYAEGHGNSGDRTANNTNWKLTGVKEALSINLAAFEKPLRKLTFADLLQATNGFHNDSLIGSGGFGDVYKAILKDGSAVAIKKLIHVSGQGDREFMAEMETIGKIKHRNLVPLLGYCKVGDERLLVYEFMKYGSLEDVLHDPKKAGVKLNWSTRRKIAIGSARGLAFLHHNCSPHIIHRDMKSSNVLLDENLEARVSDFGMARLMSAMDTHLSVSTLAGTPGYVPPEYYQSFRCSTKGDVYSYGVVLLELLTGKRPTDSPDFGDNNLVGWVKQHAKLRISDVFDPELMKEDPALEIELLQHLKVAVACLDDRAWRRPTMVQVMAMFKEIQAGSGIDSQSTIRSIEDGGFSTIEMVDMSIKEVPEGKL

[4] = molecular target: T3, KIN7 kinase domain, GST- or MBP-tagged, from E. coli
T3 chain: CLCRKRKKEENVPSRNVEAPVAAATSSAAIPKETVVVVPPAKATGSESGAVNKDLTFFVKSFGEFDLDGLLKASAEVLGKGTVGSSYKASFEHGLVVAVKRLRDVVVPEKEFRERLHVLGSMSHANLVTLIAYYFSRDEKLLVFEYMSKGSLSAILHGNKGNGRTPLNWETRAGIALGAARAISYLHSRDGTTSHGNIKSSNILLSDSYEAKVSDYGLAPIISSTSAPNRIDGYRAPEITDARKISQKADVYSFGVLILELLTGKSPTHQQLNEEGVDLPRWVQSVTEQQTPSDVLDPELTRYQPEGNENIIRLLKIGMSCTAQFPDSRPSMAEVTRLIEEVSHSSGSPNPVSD

O=C(O)CCC(=O)Nc1ccc(Br)cn1 [Bikinin]
hypocotyl elongation ([1]; 50 μM Bikinin in media, WT and brl3-2 mutant, control (22° C.) and high temperature (28° C.)): promote hypocotyl elongation
rescue of brl3 conditional phenotypes (hypocotyl elongation) on elevated temperature ([1]; 50 μM Bikinin, brl3-2 mutant, 28° C.): rescued brl3 conditional phenotypes

B1: KIN7 kinase domain, GST- or MBP-tagged, from E. coli (protein)
chain: CLCRKRKKEENVPSRNVEAPVAAATSSAAIPKETVVVVPPAKATGSESGAVNKDLTFFVKSFGEFDLDGLLKASAEVLGKGTVGSSYKASFEHGLVVAVKRLRDVVVPEKEFRERLHVLGSMSHANLVTLIAYYFSRDEKLLVFEYMSKGSLSAILHGNKGNGRTPLNWETRAGIALGAARAISYLHSRDGTTSHGNIKSSNILLSDSYEAKVSDYGLAPIISSTSAPNRIDGYRAPEITDARKISQKADVYSFGVLILELLTGKSPTHQQLNEEGVDLPRWVQSVTEQQTPSDVLDPELTRYQPEGNENIIRLLKIGMSCTAQFPDSRPSMAEVTRLIEEVSHSSGSPNPVSD
incorporation of 32P into BRL3 kinase (in vitro phosphorylation, autoradiography) [2]: KIN7 is not able to phosphorylate BRL3 domains given that the BRL3 phosphorylation pattern is lost when KIN7 is incubated with the phospho-dead version of BRL3 kinase

B2: BRL3 (BRASSINOSTEROID RECEPTOR LIKE 3), full length, fused to a half of YFP (BiFC construct) (receptor)
chain: RRLLSDDVNDTALLTAFKQTSIKSDPTNFLGNWRYGSGRDPCTWRGVSCSSDGRVIGLDLRNGGLTGTLNLNNLTALSNLRSLYLQGNNFSSGDSSSSSGCSLEVLDLSSNSLTDSSIVDYVFSTCLNLVSVNFSHNKLAGKLKSSPSASNKRITTVDLSNNRFSDEIPETFIADFPNSLKHLDLSGNNVTGDFSRLSFGLCENLTVFSLSQNSISGDRFPVSLSNCKLLETLNLSRNSLIGKIPGDDYWGNFQNLRQLSLAHNLYSGEIPPELSLLCRTLEVLDLSGNSLTGQLPQSFTSCGSLQSLNLGNNKLSGDFLSTVVSKLSRITNLYLPFNNISGSVPISLTNCSNLRVLDLSSNEFTGEVPSGFCSLQSSSVLEKLLIANNYLSGTVPVELGKCKSLKTIDLSFNALTGLIPKEIWTLPKLSDLVMWANNLTGGIPESICVDGGNLETLILNNNLLTGSLPESISKCTNMLWISLSSNLLTGEIPVGIGKLEKLAILQLGNNSLTGNIPSELGNCKNLIWLDLNSNNLTGNLPGELASQAGLVMPGSVSGKQFAFVRNEGGTDCRGAGGLVEFEGIRAERLEHFPMVHSCPKTRIYSGMTMYMFSSNGSMIYLDLSYNAVSGSIPLGYGAMGYLQVLNLGHNLLTGTIPDSFGGLKAIGVLDLSHNDLQGFLPGSLGGLSFLSDLDVSNNNLTGPIPFGGQLTTFPLTRYANNSGLCGVPLPPCSSGSRPTRSHAHPKKQSIATGMSAGIVFSFMCIVMLIMALYRARKVQKKEKQREKYIESLPTSGSSSWKLSSVHEPLSINVATFEKPLRKLTFAHLLEATNGFSADSMIGSGGFGDVYKAKLADGSVVAIKKLIQVTGQGDREFMAEMETIGKIKHRNLVPLLGYCKIGEERLLVYEYMKYGSLETVLHEKTKKGGIFLDWSARKKIAIGAARGLAFLHHSCIPHIIHRDMKSSNVLLDQDFVARVSDFGMARLVSALDTHLSVSTLAGTPGYVPPEYYQSFRCTAKGDVYSYGVILLELLSGKKPIDPEEFGEDNNLVGWAKQLYREKRGAEILDPELVTDKSGDVELLHYLKIASQCLDDRPFKRPTMIQVMTMFKELVQVDTENDSLDEFLLKETPLVEESRDKEPTQLSCTKWIDLEDPW
notes: also called BRL3 receptor; AT3G13380; not shown: half of YFP (YN or YC, both directions tested) from vectors pGTQL1211-YN / pGTQL1221-YC
binding result [3]: no binding

B3: BRL3 kinase domain, GST- or MBP-tagged, from E. coli (protein)
chain: ALYRARKVQKKEKQREKYIESLPTSGSSSWKLSSVHEPLSINVATFEKPLRKLTFAHLLEATNGFSADSMIGSGGFGDVYKAKLADGSVVAIKKLIQVTGQGDREFMAEMETIGKIKHRNLVPLLGYCKIGEERLLVYEYMKYGSLETVLHEKTKKGGIFLDWSARKKIAIGAARGLAFLHHSCIPHIIHRDMKSSNVLLDQDFVARVSDFGMARLVSALDTHLSVSTLAGTPGYVPPEYYQSFRCTAKGDVYSYGVILLELLSGKKPIDPEEFGEDNNLVGWAKQLYREKRGAEILDPELVTDKSGDVELLHYLKIASQCLDDRPFKRPTMIQVMTMFKELVQVDTENDSLDEFLLKETPLVEESRDKEPTQLSCTKWIDLEDPW
incorporation of 32P into KIN7 kinase (in vitro phosphorylation, autoradiography) [4]: The image show and autoradiography revealing the incorporation of 32P into KIN7 kinase when incubated with BRL3

B4: BRL3T1025A, phospho-dead version of the BRL3 kinase domain (protein)
chain: ALYRARKVQKKEKQREKYIESLPTSGSSSWKLSSVHEPLSINVATFEKPLRKLTFAHLLEATNGFSADSMIGSGGFGDVYKAKLADGSVVAIKKLIQVTGQGDREFMAEMETIGKIKHRNLVPLLGYCKIGEERLLVYEYMKYGSLETVLHEKTKKGGIFLDWSARKKIAIGAARGLAFLHHSCIPHIIHRDMKSSNVLLDQDFVARVSDFGMARLVSALDTHLSVSTLAGAPGYVPPEYYQSFRCTAKGDVYSYGVILLELLSGKKPIDPEEFGEDNNLVGWAKQLYREKRGAEILDPELVTDKSGDVELLHYLKIASQCLDDRPFKRPTMIQVMTMFKELVQVDTENDSLDEFLLKETPLVEESRDKEPTQLSCTKWIDLEDPW
incorporation of 32P into KIN7 kinase (in vitro phosphorylation, autoradiography) [4]: The phosphorylation in KIN7 kinase domain is lost when incubated with a phospho-dead version of BRL3, the BRL3T1025A
